Results: publication PMC4591102 (European journal of nuclear medicine and molecular imaging, 2015)
Where two headings read alike, the source gives them in different places.

Assays:
integrin αvβ3 = integrin αvβ3 (Homo sapiens, UniProt P05106+P06756); test: Competitive cell binding assay with ^125I-echistatin in U87MG cells
[1] = Octanol-water partition coefficient; format: physicochemical
Dynamic PET = test: Dynamic PET; set-up: species or system athymic nude mice; conditions: mouse, in vivo; for half-life: iv
[2] = Longitudinal static PET with ROI analysis in U87MG tumor-bearing mice; set-up: species or system athymic nude mice; conditions: mouse, in vivo
[3] = Ex vivo biodistribution at 4 h p.i.; set-up: species or system athymic nude mice; conditions: mouse, in vivo
[4] = Serum stability by radio-HPLC; format: in vitro ADME, mouse
[5] = Metabolic stability in urine by radio-HPLC; format: in vivo, ICR mice
[6] = mouse, U87MG tumor, 10 mg/kg
in vivo = conditions: both, athymic nude, mouse, tumor, 10 mg/kg, total radioactivity

In the case of `N=C(N)NCCC[C@@H]1NC(=O)[C@H](CCCCNC(=S)Nc2ccc(CC3CN(CC(=O)O)CCN(CC(=O)O)CCN3CC(=O)O)cc2)NC(=O)[C@@H](Cc2ccccc2)NC(=O)[C@H](CC(=O)O)NC(=O)CNC1=O` (stereo partly drawn) [NOTA-c(RGDfK)], the IC50 (integrin αvβ3) is reported as 507 ± 62 nM.

Compound `N=C(N)NCCC[C@@H]1NC(=O)[C@H](CCCCNC(=O)COCCOCCNC(=O)COCCOCCNC(=S)Nc2ccc(C[C@H]3CN(CC(=O)O)CCN(CC(=O)O)CCN3CC(=O)O)cc2)NC(=O)[C@@H](Cc2ccccc2)NC(=O)[C@H](CC(=O)O)NC(=O)CNC1=O` [^64Cu-NOTA-(PEG)2-c(RGDfK), metal not drawn] has a logP [1] of -2.82 ± 0.06, a tissue uptake (Dynamic PET) of ~4 %ID/g and a half-life (Dynamic PET) of 4.76 min. For the same compound, the tissue uptake at 0.5 h [2] was 3.62 ± 0.21 %ID/g, the tissue uptake at 4 h [3] was 2.36 ± 0.31 %ID/g and the “fraction remaining intact in serum” value ([4]; mouse, serum, 4 h) was > 95%. The “radioactive metabolites in urine” value ([5]; mouse, in vivo) was “not observed”.

`N=C(N)NCCC[C@@H]1NC(=O)[C@H](CCCCNC(=O)[C@H]2O[C@@H](CNC(=O)[C@H]3O[C@@H](CNC(=O)[C@H]4O[C@@H](CNC(=O)[C@H]5O[C@@H](CNC(=O)CCOCCOCCOCCOCCNC(=S)Nc6ccc(C[C@H]7CN(CC(=O)O)CCN(CC(=O)O)CCN7CC(=O)O)cc6)[C@H](O)[C@@H](O)[C@H]5O)[C@H](O)[C@@H](O)[C@H]4O)[C@H](O)[C@@H](O)[C@H]3O)[C@H](O)[C@@H](O)[C@H]2O)NC(=O)[C@@H](Cc2ccccc2)NC(=O)[C@H](CC(=O)O)NC(=O)CNC1=O` [^64Cu-NOTA-PEG4-SAA4-c(RGDfK), metal not drawn] showed a logP [1] of -3.4 ± 0.05, a tissue uptake (Dynamic PET; 5.5 MBq) of ~4 %ID/g and a half-life (Dynamic PET; 5.5 MBq) of 4.07 min. For the same compound, the tissue uptake at 0.5 h ([2]; 5.5 MBq, U87MG tumor uptake, PET, 0.5 h p.i.) was 2.5 ± 0.18 %ID/g, the tissue uptake at 2 h ([2]; 5.5 MBq, U87MG tumor uptake, PET, 2 h p.i., n = 3) was 1.77 ± 0.38 %ID/g and the tissue uptake at 4 h ([2]; 5.5 MBq, U87MG tumor uptake, PET, 4 h p.i., n = 3) was 1.67 ± 0.38 %ID/g. It also gave a tissue uptake at 4 h ([3]; 10 mg/kg, kidney uptake, ex vivo, with blocking, 4 h p.i., blocking group, c(RGDyK) 10 mg/kg) of 1.78 ± 1.04 %ID/g, a tissue uptake at 4 h ([3]; 5.5 MBq, U87MG tumor uptake, ex vivo, 4 h p.i., γ-counter) of 1.14 ± 0.26 %ID/g and a tissue uptake at 4 h ([3]; 5.5 MBq, kidney uptake, ex vivo, 4 h p.i., positive (unblocked) group) of 0.96 ± 0.12 %ID/g. For the same compound, the “fraction remaining intact in serum” value ([4]; 1 or 4 h incubation in mouse serum at 37°C) was > 95%, the “radioactive metabolites in urine” value ([5]; urine collected 1 h after administration) was “not observed” and the tissue uptake at 0.5 h [6] was 0.42 ± 0.14 %ID/g. For the same compound, the tissue uptake at 2 h [6] was 0.24 ± 0.06 %ID/g, the tissue uptake at 4 h [6] was 0.18 ± 0.03 %ID/g and the tissue uptake (in vivo) was 10 %ID/g.

In the case of `N=C(N)NCCC[C@@H]1NC(=O)[C@H](CCCCNC(=S)Nc2ccc(CC3CN(CC(=O)O)CCN(CC(=O)O)CCN3CC(=O)O)cc2)NC(=O)[C@@H](Cc2ccccc2)NC(=O)[C@H](CC(=O)O)NC(=O)CNC1=O` (stereo partly drawn) [^64Cu-NOTA-c(RGDfK), metal not drawn], the logP [1] is reported as -2.65 ± 0.01, the half-life (Dynamic PET) is reported as 2.56 min and the tissue uptake at 0.5 h [2] is reported as 4.78 ± 0.74 %ID/g. The tissue uptake at 4 h [3] was 2.98 ± 0.52 %ID/g.
